Positions count from the first letter of the chain named.
How the values were obtained:
human CCR6 [1] = biological target: T1, human CCR6 (human, UniProt P51684 1-374); assay: FACS binding assay on hCCR6 L1.2 cells, PE-conjugated anti-human Fc detection; 1-21/WT mutant
T1 construct: also called hCCR6; CD196
T1 sequence: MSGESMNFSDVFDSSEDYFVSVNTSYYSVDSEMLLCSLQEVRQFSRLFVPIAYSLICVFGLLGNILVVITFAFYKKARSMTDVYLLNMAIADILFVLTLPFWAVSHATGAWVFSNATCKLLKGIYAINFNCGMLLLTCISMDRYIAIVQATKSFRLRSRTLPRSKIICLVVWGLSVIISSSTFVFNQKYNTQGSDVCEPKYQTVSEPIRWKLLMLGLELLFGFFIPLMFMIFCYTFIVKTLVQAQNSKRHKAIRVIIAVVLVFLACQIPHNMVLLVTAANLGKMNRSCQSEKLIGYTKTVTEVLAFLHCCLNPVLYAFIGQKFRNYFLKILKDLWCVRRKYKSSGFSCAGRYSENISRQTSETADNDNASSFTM
Procedure: (§1) Binding characteristics of hAB6 and mutants hAB6-IgG1 to human CCR6 was performed using a FACS binding assay using cell line expressing human CCR6 (L1.2 human CCR6). Approximately 2.5 10⁵ hCCR6 L1.2 cells/test were washed with FACS binding buffer (FBB) (PBS, 0.5% BSA, 0.1% NaN3 (pH 7.4)), and stained with hAB6 or hAB6 mutants (4.4 μg/ml) and serial 3-fold dilutions of antibodies. After 1 h on ice, the cells were washed with FBB (pH 7.4) and with an anti-human Fc antibody PE-conjugated (Jackson ImmunoResearch). After 30 min on ice, the cells were washed 3 times with FBB (pH 7.4), and resuspended in 1% formaldehyde, and analyzed using a FACS LSR flow cytometer (BD Immunocytometry Systems). EC₅₀ values were calculated using GraphPad Prism.

human CCR6 [2] = biological target: T1, human CCR6; assay: FACS binding assay on hCCR6 L1.2 cells, PE-conjugated anti-human Fc detection; 1-21/3-3 mutant
Procedure: as §1

human CCR6 [3] = biological target: T1, human CCR6; assay: FACS binding assay on hCCR6 L1.2 cells, PE-conjugated anti-human Fc detection; 1-23/3-3 mutant
Procedure: as §1

human CCR6 [4] = biological target: T1, human CCR6; assay: FACS binding assay on hCCR6 L1.2 cells, PE-conjugated anti-human Fc detection; hAB6 (WT/WT)
Procedure: as §1

human CCR6 [5] = biological target: T1, human CCR6; assay: FACS binding assay on hCCR6 L1.2 cells, PE-conjugated anti-human Fc detection; 1-23/WT mutant
Procedure: as §1

human CCR6 [6] = biological target: T1, human CCR6; assay: FACS binding assay on hCCR6 L1.2 cells, PE-conjugated anti-human Fc detection; WT/3-3 mutant
Procedure: as §1

B1: hAB6 mutant 1-21/WT (antibody, V domains shown)
VH: EVQLVESGGGLVQPGGSLRLSCAASGFPFSDYYLYWVRQAPGKGLEWVAYITNGVGRTYYSDSVKGRFTISRDNAKNTLYLQMNSLRDEDTAVYYCTSPPLGGAWFGYWGQGTLVTVS
VL: DIVMTQSPLSLPVTPGEPASISCRSSQSIVHSNGNTYLEWYLQKPGQSPRLLIYKVSKRFSGVPDRFSGSGSGTDFTLKISRVEAEDVGVYYCFQGSHVPLTFGQGTKLEIKR
notes: IgG1 format
Q: For B1, which EC50 (human CCR6 [1]) is on record?
A: 460 pM

B2: hAB6 mutant 1-21/3-3 (antibody, V domains shown)
VH: B1 VH
VL: B1 VL with Q27R
notes: IgG1 format
Q: Which EC50 (human CCR6 [2]) does the source give for B2 here?
A: 410 pM

B3: hAB6 mutant 1-23/3-3 (antibody, V domains shown)
VH: B1 VH with A23V
VL: B1 VL with Q27R
notes: IgG1 format
Q: How did the EC50 (human CCR6 [3]) turn out when B3 was run?
A: 1200 pM

B4: humanized AB6 mAb (antibody, V domains shown)
VH: B1 VH with G107A
VL: B1 VL
notes: also called hAB6; hAB6-IgG1
Q: With B4 as the binder, how does the EC50 (human CCR6 [4]) read?
A: 3400 pM

B5: hAB6 mutant 1-23/WT (antibody, V domains shown)
VH: B1 VH with A23V
VL: B1 VL
notes: IgG1 format
Q: With B5 as the binder, how does the EC50 (human CCR6 [5]) read?
A: 390 pM

B6: hAB6 mutant WT/3-3 (antibody, V domains shown)
VH: B1 VH with G107A
VL: B1 VL with Q27R
notes: IgG1 format
Q: B6 was tested. Which EC50 (human CCR6 [6]) did it give?
A: 3200 pM

From US20240109971A1 (MONASH UNIVERSITY, published 2024)
